The target of one data set is T1, HqRRM1,2 BTFA-labeled (human, UniProt P31943 10-194).
T1 sequence: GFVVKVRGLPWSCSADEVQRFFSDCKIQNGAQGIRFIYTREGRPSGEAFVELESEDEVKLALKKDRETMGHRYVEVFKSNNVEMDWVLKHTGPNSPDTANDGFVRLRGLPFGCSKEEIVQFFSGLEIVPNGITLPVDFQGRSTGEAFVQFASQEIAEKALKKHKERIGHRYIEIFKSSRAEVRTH
Description: 19F NMR PRE.

The target of a further data set is T2, HqRRM1 (hnRNP H qRRM1) (human, UniProt P31943 10-111).
T2 sequence: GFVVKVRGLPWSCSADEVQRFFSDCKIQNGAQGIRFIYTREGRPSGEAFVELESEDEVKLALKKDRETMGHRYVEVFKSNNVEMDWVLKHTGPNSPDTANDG
Description: ITC.

The target in data set [1] is T3, HqRRM1,2 (hnRNP H tandem qRRMs) (human, UniProt P31943 10-194).
T3 sequence: T1 sequence
Description: ITC.

The target in a further data set is T4, HqRRM2 (hnRNP H qRRM2) (human, UniProt P31943 94-194).
T4 sequence: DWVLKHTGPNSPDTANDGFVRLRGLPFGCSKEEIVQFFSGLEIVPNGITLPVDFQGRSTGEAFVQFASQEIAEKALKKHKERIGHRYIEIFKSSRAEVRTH
Description: ITC.

B1: AGGGA*U spin-labeled (ssRNA)
RNA: AGGGAU
modifications: phosphorothioate between A5 and U6
On to B1, for which the binding result in the data set with HqRRM1,2 BTFA-labeled is reported as “binds”.

B2: AGGGU (ssRNA)
RNA: AGGGU
Take B2: the Kd with HqRRM1 (hnRNP H qRRM1) stood at 3200 ± 100 nM; in data set [1], 800 ± 100 nM; with HqRRM2 (hnRNP H qRRM2), 2200 ± 800 nM.
